Source: patent US20090312247

Experiments:
[1] = tested on: FLAG-epitope tagged NPRA stably over-expressed in HEK293 cells (HEK-NPRA cells)
[2] = tested on: full-length NPRA (SEQ ID NO: 2)
[3] = tested on: 5'-FLAG epitope-tagged sNRF^(806-900)
Sequence of 5'-FLAG epitope-tagged sNRF^(806-900) (chain, as listed by the source): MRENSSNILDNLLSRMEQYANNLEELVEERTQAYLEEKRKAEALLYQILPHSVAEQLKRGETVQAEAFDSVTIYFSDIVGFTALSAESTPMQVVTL

Sequence of full-length NPRA (SEQ ID NO: 2) (chain, as listed by the source): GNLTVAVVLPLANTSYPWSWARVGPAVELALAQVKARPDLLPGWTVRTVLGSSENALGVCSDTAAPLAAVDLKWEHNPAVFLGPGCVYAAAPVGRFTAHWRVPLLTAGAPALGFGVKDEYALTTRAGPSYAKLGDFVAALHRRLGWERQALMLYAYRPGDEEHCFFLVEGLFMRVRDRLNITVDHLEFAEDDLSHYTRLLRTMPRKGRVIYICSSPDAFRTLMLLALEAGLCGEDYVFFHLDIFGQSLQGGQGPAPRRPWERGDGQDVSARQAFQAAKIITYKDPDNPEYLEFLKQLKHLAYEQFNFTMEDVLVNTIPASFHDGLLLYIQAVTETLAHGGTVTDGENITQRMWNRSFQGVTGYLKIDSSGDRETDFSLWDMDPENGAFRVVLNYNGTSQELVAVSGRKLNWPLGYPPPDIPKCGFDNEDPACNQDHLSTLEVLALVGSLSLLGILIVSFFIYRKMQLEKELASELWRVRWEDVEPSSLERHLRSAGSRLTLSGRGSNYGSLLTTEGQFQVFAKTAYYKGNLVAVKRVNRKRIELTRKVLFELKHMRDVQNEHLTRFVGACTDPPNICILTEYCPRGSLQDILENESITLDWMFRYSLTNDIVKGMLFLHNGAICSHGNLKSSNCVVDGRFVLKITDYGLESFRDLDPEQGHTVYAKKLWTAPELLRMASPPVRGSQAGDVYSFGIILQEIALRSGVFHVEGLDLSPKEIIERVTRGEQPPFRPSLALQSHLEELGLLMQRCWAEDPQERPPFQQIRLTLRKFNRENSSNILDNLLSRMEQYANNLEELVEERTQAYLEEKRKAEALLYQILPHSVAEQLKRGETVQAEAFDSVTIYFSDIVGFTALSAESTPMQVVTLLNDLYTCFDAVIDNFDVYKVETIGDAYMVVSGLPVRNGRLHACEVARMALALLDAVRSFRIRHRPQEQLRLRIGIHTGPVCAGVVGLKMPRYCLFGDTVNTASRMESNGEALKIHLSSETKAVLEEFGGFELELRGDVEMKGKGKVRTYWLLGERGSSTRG

Question: For “cGMP-dependent protein kinase I (PKG) in HEK-NPRA cells”, which “ANP-induced phosphorylation of a 137-kD protein ([35S]ATPγS, autoradiography)” value [1] is on record?
Answer: Robust phosphorylation of a 137-kD protein occurred in the NPRA-expressing cells, but not in control cells

Question: For recombinant PKG, which “phosphorylation ([35S]ATPγS incorporation, autoradiography of Cos7 membrane lysates)” value [2] is on record?
Answer: SDS page gels demonstrated a phosphorylated 137 kD protein that corresponded to full-length NPRA

Question: With “cGMP-dependent protein kinase I (PKG), endogenous in neonatal rat cardiac fibroblasts” as the substance, how does the “ANP-induced NPRA phosphorylation in cardiac fibroblasts ([35S]ATPγS incorporation)” value [3] read?
Answer: both KT5823 or expressed sNRF^(806-900) protein reduced ANP-induced NPRA phosphorylation to control levels
